Results as given in article PMC6274671 (International Journal of Molecular Sciences, 2018).

Target: T1, bovine serum albumin (Bos taurus, UniProt P02769)
T1 construct: also called BSA
Experiment: ELISA
Conditions: both partners purified

T1 sequence (P02769 25-607): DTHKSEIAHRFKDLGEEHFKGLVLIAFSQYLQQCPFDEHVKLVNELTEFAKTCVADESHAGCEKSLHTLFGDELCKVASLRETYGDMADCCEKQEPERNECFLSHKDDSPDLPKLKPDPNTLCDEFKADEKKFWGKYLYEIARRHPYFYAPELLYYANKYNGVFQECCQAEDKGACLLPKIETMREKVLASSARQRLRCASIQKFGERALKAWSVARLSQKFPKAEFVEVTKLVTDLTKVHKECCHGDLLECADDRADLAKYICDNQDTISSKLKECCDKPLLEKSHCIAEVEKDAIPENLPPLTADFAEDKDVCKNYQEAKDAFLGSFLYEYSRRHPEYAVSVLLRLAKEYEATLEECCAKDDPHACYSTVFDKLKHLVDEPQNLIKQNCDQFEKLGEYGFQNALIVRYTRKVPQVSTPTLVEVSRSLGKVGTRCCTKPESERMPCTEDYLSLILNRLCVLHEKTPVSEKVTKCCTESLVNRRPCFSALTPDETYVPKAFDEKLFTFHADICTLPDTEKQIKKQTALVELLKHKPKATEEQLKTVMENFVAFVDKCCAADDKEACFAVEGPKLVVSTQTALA

B1: fluorescein-specific VHH-D4 (VHH)
VHH: QVQLVESGGALVQPGGSLRLSCAASGFTFGSFSMSWYRQATGKEREWVAGLSAGSSSTYYADSVKGRFTISRDNARNTVYLQMNSLKPEDTAVYYCARRTNTSSGSAGSFSTCIDDWGQGTQVTVSS
notes: also called clone D4
**Q.** Does B1 bind?
**A.** Result: no binding
